Experimental data published in article PMC4219717.
Values belong to the substance of their own block, whether it stands above or below them.

How the values were obtained:
GST-AHSP^WT (human) = GST-AHSP^WT (human) (UniProt Q9NZD4)
UniProt Q9NZD4, sequence (Q9NZD4 whole entry): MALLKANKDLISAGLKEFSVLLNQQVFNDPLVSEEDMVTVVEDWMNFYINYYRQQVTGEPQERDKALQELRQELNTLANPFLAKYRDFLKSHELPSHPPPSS

- CO recombination kinetics after flash photolysis of the GST-AHSP^WT/GST-α-Hb complex: fraction of the intermediate (I) phase (GST-AHSP^WT (human)): 100 % I phase
Substance: GST-α-Hb^WT (natural protein)

- CO recombination kinetics after flash photolysis of the GST-AHSP^WT/GST-α-Hb complex: fraction of the intermediate (I) phase (GST-AHSP^WT (human)): 20 % I phase
Substance: GST-α-Hb1-117 (domain or fragment)

- CO recombination kinetics after flash photolysis of the complex: fraction of the intermediate (I) phase (GST-AHSP^WT (human)): 100 % I phase
Substance: native α-Hb (natural protein)

- CO recombination kinetics after flash photolysis of the GST-AHSP^WT/GST-α-Hb complex: fraction of the intermediate (I) phase (GST-AHSP^WT (human)): 19 % I phase
Substance: GST-α-Hb1-126 (domain or fragment)

- CO recombination kinetics after addition of β-Hb and 1 mM IHP to the GST-AHSP^WT/GST-α-Hb complex: fraction of the rapid (R) phase (GST-α-Hb1-117 (human)): 88 % R phase
- CO recombination kinetics after addition of β-Hb and 1 mM IHP to the GST-AHSP^WT/GST-α-Hb complex: fraction of the rapid (R) phase (GST-α-Hb1-126 (human)): 80 % R phase
- CO recombination kinetics after addition of β-Hb and 1 mM IHP to the GST-AHSP^WT/GST-α-Hb complex: fraction of the rapid (R) phase (GST-α-Hb1-134 (human)): 84 % R phase
- CO recombination kinetics after addition of β-Hb and 1 mM IHP to the GST-AHSP^WT/GST-α-Hb complex: fraction of the rapid (R) phase (GST-α-Hb1-138 (human)): 95 % R phase
- CO recombination kinetics after addition of β-Hb and 1 mM IHP to the GST-AHSP^WT/GST-α-Hb^WT complex: fraction of the slow (T) phase (GST-α-Hb^WT (human)): 32 % T phase
Substance: native β-Hb (natural protein)

- CO recombination kinetics after flash photolysis of the GST-AHSP^WT/GST-α-Hb complex: fraction of the rapid (R) phase (GST-AHSP^WT (human)): 97 % R phase
Substance: GST-α-Hb1-138 (domain or fragment)

- CO recombination kinetics after flash photolysis of the GST-AHSP^WT/GST-α-Hb complex: fraction of the intermediate (I) phase (GST-AHSP^WT (human)): 10 % I phase
Substance: GST-α-Hb1-134 (domain or fragment)
